Experimental data taken from the supplement of paper PMC9112550, “Optimization of the antimicrobial peptide Bac7 by deep mutational scanning” (BMC Biology, 2022).

System: Escherichia coli TOP10
Test: shrunken log2 fold change of peptide-encoding DNA abundance (4.5 h post-induction vs induction); higher = less antimicrobial activity (less host growth inhibition)
Conditions: time post-induction: 4.5 h; library: site-saturation at positions 5, 18, 19, 20
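Further: peptides expressed intracellularly from a pBAD plasmid library in pooled LB shake-flask culture, induced with 0.3% L-arabinose, DNA abundance read by NGS, three biological replicates, DESeq2 with apeglm shrinkage.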

Sequence | shrunken log2 fold change
RRIRARPPRLPRPRPRPHTTPRP | -0.481
RRIRERPPRLPRPRPRPYIDPRP | -1.51
RRIRARPPRLPRPRPRPHPTPRP | 0.648
RRIRQRPPRLPRPRPRPRQVPRP | 0.302
RRIRNRPPRLPRPRPRPSRVPRP | 0.0304
RRIRNRPPRLPRPRPRPGRMPRP | 0.0895
RRIRMRPPRLPRPRPRPPKNPRP | 1.18
RRIRPRPPRLPRPRPRPSAHPRP | -0.167
RRIRRRPPRLPRPRPRPNKAPRP | 0.158
RRIRQRPPRLPRPRPRPMHTPRP | -0.026
RRIRWRPPRLPRPRPRPCRYPRP | -0.129
RRIRLRPPRLPRPRPRPNVNPRP | -0.28
RRIRVRPPRLPRPRPRPMDYPRP | -0.0122
RRIRIRPPRLPRPRPRPCAFPRP | -0.1
RRIRHRPPRLPRPRPRPSQPPRP | -0.184
RRIRNRPPRLPRPRPRPLECPRP | -0.311
RRIRDRPPRLPRPRPRPHVEPRP | -0.109
RRIRPRPPRLPRPRPRPNNVPRP | -0.22
RRIRWRPPRLPRPRPRPSIDPRP | 0.452
RRIRIRPPRLPRPRPRPVAPPRP | 0.244
RRIRDRPPRLPRPRPRPWMYPRP | -0.267
RRIRVRPPRLPRPRPRPMWWPRP | -0.0322
RRIRDRPPRLPRPRPRPMGAPRP | 1.43
RRIRSRPPRLPRPRPRPTANPRP | 0.293
RRIRIRPPRLPRPRPRPMCWPRP | -0.00326

Sequence | shrunken log2 fold change
RRIRERPPRLPRPRPRPWRGPRP | 0.166
RRIRLRPPRLPRPRPRPVAMPRP | 0.0144
RRIRARPPRLPRPRPRPLDSPRP | 0.166
RRIRCRPPRLPRPRPRPENYPRP | -0.474
RRIRMRPPRLPRPRPRPHCTPRP | -0.147
RRIRARPPRLPRPRPRPHAEPRP | 0.955
RRIRGRPPRLPRPRPRPEDKPRP | 1.23
RRIRKRPPRLPRPRPRPIFVPRP | 0.471
RRIRLRPPRLPRPRPRPRQTPRP | 1.27
RRIRCRPPRLPRPRPRPTHSPRP | 0.288
RRIRNRPPRLPRPRPRPTEMPRP | -0.283
RRIRCRPPRLPRPRPRPKDIPRP | -0.0796
RRIRTRPPRLPRPRPRPRCCPRP | 0.0734
RRIRFRPPRLPRPRPRPHLTPRP | -0.226
RRIRGRPPRLPRPRPRPNSWPRP | 0.356
RRIRVRPPRLPRPRPRPFSLPRP | -0.348
RRIRVRPPRLPRPRPRPVWPPRP | 0.257
RRIRNRPPRLPRPRPRPKTKPRP | -0.0202
RRIRYRPPRLPRPRPRPASKPRP | -1.29e-05
RRIRLRPPRLPRPRPRPIVQPRP | -1.06
RRIRCRPPRLPRPRPRPALNPRP | 0.179
RRIRPRPPRLPRPRPRPFCDPRP | -0.233
RRIRFRPPRLPRPRPRPVFPPRP | -0.224
RRIRMRPPRLPRPRPRPLSLPRP | 0.0457
RRIRVRPPRLPRPRPRPPRVPRP | 0.305

Sequence | shrunken log2 fold change
RRIRDRPPRLPRPRPRPPTAPRP | 0.0444
RRIRNRPPRLPRPRPRPSTWPRP | -0.332
RRIRKRPPRLPRPRPRPKHRPRP | 0.237
RRIRIRPPRLPRPRPRPGCWPRP | 0.312
RRIRARPPRLPRPRPRPMKEPRP | -0.101
RRIRVRPPRLPRPRPRPYGCPRP | -0.00989
RRIRSRPPRLPRPRPRPYMEPRP | 2.73
RRIRRRPPRLPRPRPRPTRGPRP | 0.661
RRIRHRPPRLPRPRPRPGRGPRP | 0.529
RRIRSRPPRLPRPRPRPTEGPRP | 0.139
RRIRTRPPRLPRPRPRPGKVPRP | 0.145
RRIRYRPPRLPRPRPRPVVAPRP | -0.32
RRIRIRPPRLPRPRPRPWIHPRP | 2.37
RRIRQRPPRLPRPRPRPEMAPRP | -0.0608
RRIRSRPPRLPRPRPRPERNPRP | -0.098
RRIRLRPPRLPRPRPRPSKQPRP | -0.572
RRIRSRPPRLPRPRPRPCNFPRP | -0.702
RRIRFRPPRLPRPRPRPMTVPRP | -0.463
RRIRGRPPRLPRPRPRPFSHPRP | -0.153
RRIRLRPPRLPRPRPRPGKAPRP | 0.0651
RRIRYRPPRLPRPRPRPEFRPRP | -0.0207
RRIRTRPPRLPRPRPRPCIPPRP | -1.3
RRIRGRPPRLPRPRPRPQYNPRP | -0.0557
RRIRWRPPRLPRPRPRPERWPRP | 1.14
RRIRSRPPRLPRPRPRPVSSPRP | 0.0316

Sequence | shrunken log2 fold change
RRIRARPPRLPRPRPRPMVSPRP | 0.124
RRIRGRPPRLPRPRPRPQWDPRP | 0.534
RRIRYRPPRLPRPRPRPVPPPRP | 0.208
RRIRTRPPRLPRPRPRPCGRPRP | 0.155
RRIRCRPPRLPRPRPRPFKLPRP | -0.62
RRIRTRPPRLPRPRPRPHMLPRP | -0.389
RRIRCRPPRLPRPRPRPEICPRP | 0.0631
RRIRVRPPRLPRPRPRPSHQPRP | 0.0669
RRIRHRPPRLPRPRPRPTNSPRP | -0.258
RRIRIRPPRLPRPRPRPWMYPRP | -0.184
RRIRKRPPRLPRPRPRPLQNPRP | 0.551
RRIRERPPRLPRPRPRPWIAPRP | -0.0555
RRIRIRPPRLPRPRPRPLAQPRP | -0.116
RRIRLRPPRLPRPRPRPQVPPRP | -0.0408
RRIRMRPPRLPRPRPRPADCPRP | 0.918
RRIRYRPPRLPRPRPRPTWPPRP | 0.183
RRIRPRPPRLPRPRPRPVLSPRP | 0.076
RRIRARPPRLPRPRPRPDWHPRP | 0.136
RRIRRRPPRLPRPRPRPNNSPRP | -0.356
RRIRFRPPRLPRPRPRPVVIPRP | 0.0715
RRIRCRPPRLPRPRPRPFVLPRP | -0.469
RRIRGRPPRLPRPRPRPQFEPRP | 0.156
RRIRTRPPRLPRPRPRPALRPRP | 0.398
RRIRARPPRLPRPRPRPWASPRP | -0.145
RRIRDRPPRLPRPRPRPVNAPRP | 0.188

Sequence | shrunken log2 fold change
RRIRQRPPRLPRPRPRPMRAPRP | 0.235
RRIRCRPPRLPRPRPRPHHHPRP | -0.815
RRIRPRPPRLPRPRPRPCVMPRP | -0.162
RRIRQRPPRLPRPRPRPRSYPRP | -0.286
RRIRNRPPRLPRPRPRPSKHPRP | -0.545
RRIRMRPPRLPRPRPRPFRKPRP | -0.0166
RRIRWRPPRLPRPRPRPTSYPRP | -0.103
RRIRHRPPRLPRPRPRPWHFPRP | -0.0331
RRIRWRPPRLPRPRPRPGCSPRP | 0.551
RRIRPRPPRLPRPRPRPWPQPRP | 0.0953
RRIRYRPPRLPRPRPRPMMKPRP | -0.0161
RRIRRRPPRLPRPRPRPLSPPRP | 0.411
RRIRERPPRLPRPRPRPMKSPRP | -0.163
RRIRCRPPRLPRPRPRPKKMPRP | 0.169
RRIRARPPRLPRPRPRPRNSPRP | -0.0469
RRIRMRPPRLPRPRPRPCDTPRP | 0.13
RRIRERPPRLPRPRPRPEKCPRP | -0.00149
RRIRRRPPRLPRPRPRPSVVPRP | 0.15
RRIRHRPPRLPRPRPRPAIGPRP | -0.0264
RRIRTRPPRLPRPRPRPNPEPRP | -0.101
RRIRRRPPRLPRPRPRPKLKPRP | 0.211
RRIRFRPPRLPRPRPRPDGFPRP | 0.015
RRIRQRPPRLPRPRPRPFGSPRP | -0.156
RRIRMRPPRLPRPRPRPNILPRP | 0.057
RRIRNRPPRLPRPRPRPPNDPRP | 0.182
